In the DeepSol protein solubility set:

Assay: soluble on expression in E. coli; label from the status in PepcDB or PDB records

Sequence	soluble on expression in E. coli
MKAQEVPSTTFTGGETVLTFKGGVHPPELKEWSKDKPIERAPLPQKVFVFLSNHAGNPAKPVVSPGDEVKTGQVIGEPEGFISAYLHSPVTGRVLEIKKILHPILGKPIEAIVIERTSDDEWVHIETGDFERMSKEEILEIIKKAGIVGLGGAMFPTHVKLSPPPEKKVDTLIVNGAECEPVLTIDHRLMLERAEDILQGILIMMKVLGVQKAVVGVESNKMDAYHNLKKVFKGYPVDVALLRTKYPQGAEKQLIYAITGRMVPRGGLPMDVGVVVQNVGTCVAVKEAVVDGKPLVERGMTVSGDAVKNQKNLIVRIGTPVKDVIDYCGGIDENTERVILGGPMMGISITNLDIPVMKGTSGITAFLPKKSRPQKPCIRCSECVQVCPMNLQPYLLYLLSTKRKYDEAVENGLMDCIECGSCTYTCPSKIEHVRYIKLAKTVYRATRRGRRAAALEHHHHHH	soluble
MGSDKIHHHHHHMNLLEVKSLKARFKRGGFALESVNLTLKKGECVSIVGESGSGKSFLAQLIVRLFPQGSVEVEEGEILFLGENLLDFSQERLEGVRGSEIGFVFQEPLISLNPLHTIEKQLAEAILLHRSLSREELKREIGALYASVGLEALKGRAKIYPHELSGGQRQRVMIAMALANSPKLLIADEPTTALDVSVQKQILDLLFRLKEERGVSLLLISHDLGVVRHYADKVYVMKGGKVVESASKEELFAHPKHPYTQALLSSLHLPLKESPPSRGEILLEAENLDLSFVLKKDWLGRPKEYLRALSSISLRLREGENLGIVGESGSGKSTLALALCKLLSFEGRLRMGHEEMAKMEESRFRPFRSMIQIVFQDPYGSLSPRLSIEEILREGLEVHFPAQKESFERRIIEALEGVGLESSYRYRYPNELSGGQRQRVAIARALILRPKILILDEPTSALDRSIEHQVVALLLELQKRYNLTYLCISHDLRVIGALSDRVAVMKGGRLIEEGETSLILQSPTHPYTQELIGSLLL	not soluble
MSKIKRVLISVSDKTGIIEFAKELSKYNIEILSTGGTSKTLKDAGINVIDVSEHTQFPEIMNGRVKTLHPLIHGGILADRDNPEHLDAMLKNHIGQIDMVVVNLYPFVNTVKSGADFDTCIENIDIGGPSMVRSCAKNHKHTTIVTNPSQYDLVIKEMAENDGKTTLATRREFAKEAFAHTAEYDSHIANWFSKELDEEYPEKLFSVGTLKQVLRYGENPHQKAAVYSTDADCVSITNARQLQGKELSYNNLNDADGAFEMVCEYSEPSCAIIKHANPCGIASGKNAFEAWTKALACDPISAFGGIVAFNCEVDKEFAESLGKMFLEVIIAPSYTQEALDILAAKKNLRVLETGKVFDTKSSRMISKNIHGGILSQSYDNGGVDINDCKVVTDRAPTDKEWADLMFAWKAVKYVKSNAIVYARDTQTVGIGAGQMSRVDSARIGAEKAQAHQGAKGSAVASDAFFPFADGLEECIKAGATAVIQPGGSKNDQEVIDAANKAGITMVFTNMRHFRH	not soluble
MSLKAFGFNQYGNSNVMEELNIPIPKIKPGEVLVKTTAFAINAFDIAVRNGQFRNNVTLLFPTILGTDGVGRIVKLGAGVHDYSIGDDVLARPGIGTYTEYFKVSVDHLGSRPSNYSPYEAAGLPLSGITAYNTLVHIAHVKQGQTVVILGSSGGVGSMLVQMAHALGLYVIGTDAESARETVLNLGASEFGAYDTERVSSKFKSMADILIDATNLGASIAGIQIIKPTGTYVSLTTLPKDRTLKPDVIYRQVIPRREYRDSDAFTTISLMIRNNQLHVPIDHLESFTLDGIRKGQSDVENGSPDGKVIVTLEGHHHHHH	not soluble
MSDYAESYVSDCEVDPEELKNQSLFDKPRGVPRWLGKPHNSVKERLHNSVKDRTFIQKTVSSSEPLSRNAMDRIEASLTDNLNLDVVYSLNKKNRWQDAKTTFLLAGAPENVNAEVVEKNGLAQFGFIYPEKSTFAVHSRVLNKENKQGEFEIRSAITSSARGQDYSNFLPNTREFSKKANAKVMTLRSEEVDEDSKRQPTVSYNIYKTHRSQDVVGKEMFKAKVVSKSRRHRQNKKVDMENYDDLDEEFEDDEDEVVDSHRPTGVFDLAAFKVRTQSKQAHPKNRKDSELSYDMVDYDELETGSEYSQQFNVQEYLNQEGYTFIQADVTFVKLTEPFEDQINQLRLEGDLRVKDLQKNQYLIDISKRCQPNGTTQDGETTAVIVLTHLKHKTYNMIFNSTIGADPIRRNGENLRKIVSSAPTVLEVITKISGDVAEDKQLISRIKTSEKFYGRPSTSVDWNDLSLQRATCPNQYDNATWANSEELSVVGGKLEWDDLVAMVKKENNLVTCYSSDDFCGFCNRKKKSFELFLIKSSSETKIKCTECLRNEFYREFIARRLPIDLQTETADEMEYLPIFIPLTLLNLYIRTVAETIYKDLGATGDFEKCPSCKSTIFFEEPGNENKTQNRSCPCGYSWCRDCKGVPHWPMNCENYAEWEKKWHLRYAMMNAQGTGTVTLLQFTCHCKTVYYCLLPTKRVNCPGCRESVNLETMNTMYRQFYYSYPPRYRKWEKQYHEENKDTDRHPYQPLAKVCWEIDKIPAIKASVIETCGAARDVRFDLKFRNRVIKQEQVLIKKSILTSEVLENILGTIPYLVENVTAWMHMSNHQDKNLKSILESMIADRKDLVYYLESENEIEIEKCVKILRAKIDSVVSIVEKNMKNC	not soluble
MGSDKIHHHHHHMKTERLISYLRPGRWPSVWCPGCGNGIVLKAFLEAVDDLALPKEKVAVVSGIGCSSRATGYLDFNTLHTLHGRAIAFATGVKLAKPDFEVVVMGGDGDILSIGGNHFIHACRRNIDITVVIFNNMIYGMTGGQVSSTTPQYYQTSTTPLGAFEKPFDAVEIALSAGATFVARSTVYHYDHLVRVLKKALQHRGISVVDVLTNCHTYFGRYNGMPEPHQMMEYFKNNTCFLERPEEGKIKIGIFREEEKEDFLTVYRRLTRKEGAME	not soluble
TVHKQDGKVLEIELSSLKEALSFVSLIDGYYRLTADAHHYLCKEVAPPAVLENIHSNCHGPISMDFAISKLKKAGNQTGLYVLRCSPKDFNKYFLTFAVERENVIEYKHCLITKNENGEYNLSGTKRNFSNLKDLLNCYQMETVRSDSIIFQFTKCCPPKPKDKSNLLVFRTNGISDVQISPTLQRHNNVNQMVFHKIRNEDLIFNESLGQGTFTKIFKGVRREVGDYGQLHKTEVLLKVLDKAHRNYSESFFEAASMMSQLSHKHLVLNYGVCVCGEENILVQEFVKFGSLDTYLKKNKNSINILWKLGVAKQLAWAMHFLEEKSLIHGNVCAKNILLIREEDRRTGNPPFIKLSDPGISITVLPKDILQERIPWVPPECIENPKNLNLATDKWSFGTTLWEICSGGDKPLSALDSQRKLQFYEDKHQLPAPKWTELANLINNCMDYEPDFRPAFRAVIRDLNSLFTPDYELLTENDMLPNMRIGALGFSGAFEDRDPTQFEERHLKFLQQLGKGNFGSVEMCRYDPLQDNTGEVVAVKKLQHSTEEHLRDFEREIEILKSLQHDNIVKYKGVCYSAGRRNLRLIMEYLPYGSLRDYLQKHKERIDHKKLLQYTSQICKGMEYLGTKRYIHRDLATRNILVENENRVKIGDFGLTKVLPQDKEYYKVKEPGESPIFWYAPESLTESKFSVASDVWSFGVVLYELFTYIEKSKSPPVEFMRMIGNDKQGQMIVFHLIELLKSNGRLPRPEGCPDEIYVIMTECWNNNVSQRPSFRDLSLRVDQIRDSIAA	not soluble
MGSDKIHHHHHHMITYFELKNFRSFSNITLDLRKAYGKPKKVVFIYGENGSGKSNLMSSFLFLLQTLNTFKNQVELKDMPEYKSNLFESIKDDKIRHQLLQQILHMQFITLSNLIDEYKMLGNEKNMSTKFGFRIEESDGSYFMEFSKDKIIKEELRYQINEREGTVFSISKNQITLSPTVFLDLDYKKELQDNIEKYWGKHTFMAILCNEIETKNSNYIKAKINKNLLNVIWEMRGLSVWCKECHGETARISIPLKFMRQLDEGSVKDQNNKELKLCETALNTFFTQLYSDIKAVHYVFTPNENDYSYELCFKKLIDGKLIDIPISLESTGTRKLLEIFPMLFGSVAGTPVFVDEIDSGIHDVLMKNLLERLLESIEGQLIATTHNTLLMESLPTENTYIIRVNATGNKSIDCVANYRQRTQKTNSMRNKYLRGDYDGIPYTGYFDFQELVEDVLDNIPSSDNEDGDEA	not soluble
GLIVDTRDVEERVHVMRKTKLAPTVAHGVFNPEFGPAALSNKDPRLNEGVVLDEVIFSKHKGDTKMSAEDKALFRRCAADYASRLHSVLGTANAPLSIYEAIKGVDGLDAMEPDTAPGLPWALQGKRRGALIDFENGTVGPEVEAALKLMEKREYKFACQTFLKDEIRPMEKVRAGKTRIVDVLPVEHILYTRMMIGRFCAQMHSNNGPQIGSAVGCNPDVDWQRFGTHFAQYRNVWDVDYSAFDANHCSDAMNIMFEEVFRTEFGFHPNAEWILKTLVNTEHAYENKRITVEGGMPSGCSATSIINTILNNIYVLYALRRHYEGVELDTYTMISYGDDIVVASDYDLDFEALKPHFKSLGQTITPADKSDKGFVLGHSITDVTFLKRHFHMDYGTGFYKPVMASKTLEAILSFARRGTIQEKLISVAGLAVHSGPDEYRRLFEPFQGLFEIPSYRSLYLRWVNAVCGDAAALE	soluble
MSLDSGRNGGGPSVFRRDLLRSIGAAGLAGLAGCGGSEGVTDGDGTPAPTPVGNFPVSGDSVTFGFNVASSGAYSTAGKQEIRGFKLAVKHINNGGGWVTSEKYNSPLDGDGLLGKDVEFVVEDTGGSSDTARSNAQRLVDGEEVIMLAGGTSSSAGLANQEVAAQNQVIYMATMANTNSLTGADCNRYSFREMFNNHMAAEALAPALSDEFGKNANYVKIFQDNDWGQTLRDDMDAALGNVGWAPVWDTTAQVGTSDYSQYAADIKSVDFDVIVLGLGGLDAVNALRAFRDEFPESNIVLPMASREIAETAGGAIEGVIGTVAWSRAINSPLSNTFRETFREEYGSSTGSSKSAAPSGAAHIAYTQALQYASAVERAGTFNPIDVIGALEGHEYDAGLGPQTLRACDHQAMRQVPVVRGKSEIQQSYGTYYDLIGEPADVQYACDSGPAANCSLGGSEGHHHHHH	not soluble
MKVAGVDEAGRGPVIGPLVIGVAVIDEKNIERLRDIGVKDSKQLTPGQREKLFSKLIDILDDYYVLLVTPKEIDERHHSMNELEAEKFVVALNSLRIKPQKIYVDSADVDPKRFASLIKAGLKYEATVIAEHKADAKYEIVSAASIIAKVTRDREIEKLKQKYGEFGSGYPSDPRTKEWLEEYYKQYGDFPPIVRRTWETARKIEERFRKNQLTLDKFLK	soluble
MGSDKIHHHHHHMMEYWIRRALEVVKTPFLLFDLSVVEKKYLEMKAALKKADIYYAVKANSHPRIISLLARLGSNFDVASKGEIEKLLALGVDGKRMSFGNTIKREEDIAFAYKNGIRLFAVDSEMEVEKVAINAPGSFVFVRVETDGADADWPLSRKFGTNPEHALQLLSYASKMKLIPAGLSFHVGSQNLNPESWKKAIEIAGRVFKKAMRSGLNLFLLNVGGGFPVQHTKPIPSMEEIGKAIEEAIDENLWFVHNLKVIAEPGRYMVGEAGWLVTKVLLKSERSGEKWVYIDAGVFHGLAETIQNFEYEIRVLGKEREELEEYHLAGPTCDSVDVIYDRIFLPKSITLNDLVCFINAGAYTVEYNTRFNGIEPPKMVFIEELTEISIEEKIKTRVLD	not soluble
GGSGWNADNVDPSQCIKQSGVQYTYNSGVSVCMQGLNEGKVRGVSVSGVFYYNDGTTSNFKGVVTPSTPVNTNQDINKTNKVGVQKYRALTEWVGSRSHHHHHH	soluble
MASPPPFHSQKLPGEYFRYKGVPFPVGLYSLESISLAENTQDVRDDDIFIITYPKSGTTWMIEIICLILKEGDPSWIRSVPIWERAPWCETIVGAFSLPDQYSPRLMSSHLPIQIFTKAFFSSKAKVIYMGRNPRDVVVSLYHYSKIAGQLKDPGTPDQFLRDFLKGEVQFGSWFDHIKGWLRMKGKDNFLFITYEELQQDLQGSVERICGFLGRPLGKEALGSVVAHSTFSAMKANTMSNYTLLPPSLLDHRRGAFLRKGVCGDWKNHFTVAQSEAFDRAYRKQMRGMPTFPWDEDPEEDGSPDPEPSPEPEPKPSLEPNTSLEREPRPNSSPSPSPGQASETPHPRPS	soluble
